Here are results for four molecules from patent US20200317768A1 (published 2020).

Experiment in all cases: SPR (BIACORE), antibody captured, FcgR analyte
A general note: In SPR one partner is held on a chip, and binding of the other changes the refractive index at the surface.

Test [1] has as its target T1, human FcγRIIaR extracellular domain with C-terminal His-tag (human, UniProt P12318 34-217).
T1 construct: also called human FcgRIIaR; FcγRIIa (type R)
T1 chain: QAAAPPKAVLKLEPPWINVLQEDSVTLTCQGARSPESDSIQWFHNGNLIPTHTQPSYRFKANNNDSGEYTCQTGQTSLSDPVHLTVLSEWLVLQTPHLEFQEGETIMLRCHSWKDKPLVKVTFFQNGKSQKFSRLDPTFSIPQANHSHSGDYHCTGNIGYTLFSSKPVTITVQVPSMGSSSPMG

Test [2] deals with T2, human FcγRIIIaV extracellular domain with C-terminal His-tag (human, UniProt P08637 17-208).
T2 construct: also called human FcgRIIIaV
T2 sequence (P08637 17-208 F176V): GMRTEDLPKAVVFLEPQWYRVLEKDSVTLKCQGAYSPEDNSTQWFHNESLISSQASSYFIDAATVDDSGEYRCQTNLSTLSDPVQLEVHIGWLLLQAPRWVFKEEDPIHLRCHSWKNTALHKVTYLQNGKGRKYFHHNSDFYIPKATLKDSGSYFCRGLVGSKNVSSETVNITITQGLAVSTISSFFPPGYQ

Test [3] deals with T3, human FcγRIIb extracellular domain with C-terminal His-tag (human, UniProt P31994 43-217).
T3 construct: also called human FcgRIIb
T3 sequence: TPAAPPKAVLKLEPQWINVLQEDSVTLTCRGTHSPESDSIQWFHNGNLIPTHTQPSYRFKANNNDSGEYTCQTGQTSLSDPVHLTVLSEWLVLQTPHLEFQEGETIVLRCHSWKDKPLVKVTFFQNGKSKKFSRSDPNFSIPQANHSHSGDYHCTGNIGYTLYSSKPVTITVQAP

Test [4] concerns the target T4, cynomolgus monkey FcγRIIa3 extracellular domain with C-terminal His-tag (cynomolgus monkey).
T4 construct: also called cyno FcgRIIa3; cynoFcγRIIa3
T4 chain: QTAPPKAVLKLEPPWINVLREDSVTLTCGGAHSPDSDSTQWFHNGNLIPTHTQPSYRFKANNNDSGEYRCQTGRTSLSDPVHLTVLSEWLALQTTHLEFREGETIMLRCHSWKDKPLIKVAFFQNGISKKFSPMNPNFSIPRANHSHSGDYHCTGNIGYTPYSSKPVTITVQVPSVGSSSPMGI

The target of test [5] is T5, cynomolgus monkey FcγRIIa2 extracellular domain with C-terminal His-tag (cynomolgus monkey).
T5 construct: also called cyno FcgRIIa2; cynoFcγRIIa2
T5 chain: T4 chain with I127K, K130N, P133H, R142Q

Test [6] addresses T6, human FcγRIIaH extracellular domain with C-terminal His-tag (human, UniProt P12318 34-217).
T6 construct: also called human FcgRIIaH; FcγRIIa (type H)
T6 sequence: T1 chain with R134H

For test [7], the target named is T7, cynomolgus monkey FcγRIIIaS extracellular domain with C-terminal His-tag (cynomolgus monkey, UniProt Q8SPW2 21-206 at identity 1.00)).
T7 construct: also called cyno FcgRIIIaS; cynoFcγRIIIaS
T7 chain: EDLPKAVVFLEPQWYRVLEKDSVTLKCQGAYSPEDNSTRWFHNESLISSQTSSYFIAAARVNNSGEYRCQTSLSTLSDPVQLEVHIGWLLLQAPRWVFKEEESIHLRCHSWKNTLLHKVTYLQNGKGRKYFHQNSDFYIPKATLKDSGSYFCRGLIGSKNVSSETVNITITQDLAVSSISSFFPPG

Test [8] deals with T8, cynomolgus monkey FcγRIIa1 extracellular domain with C-terminal His-tag (cynomolgus monkey).
T8 construct: also called cyno FcgRIIa1; cynoFcγRIIa1
T8 chain: T4 chain with T95P, A121T, S128A, P133H, N135D

Substitutions are numbered along the chain they refer to.

A word on the Kd: it is the concentration at which binding is half-saturated.

B1: M103205H795-MY529/M103202L889-SK1 (antibody, human IgG1, kappa)
heavy: QVTLKESGPVLVKPTETLTLTCTVSGIDLSHDDISWVRQAPGKGLEWVGIISYAGSTYYASWAKGRLTISKDTSKNQVVLTMTNMDPVDTATYYCARGVPAYSHGGDLWGQGTLVTVSSASTKGPSVFPLAPSSKSTSGGTAALGCLVKDYFPEPVTVSWNSGALTSGVHTFPAVLQSSGLYSLSSVVTVPSSSLGTQTYICNVNHKPSNTKVDKKVEPKSCDKTHTCPPCPAPEWLTGPSVFLFPPKPKDTLMISRTPEVTCVVVDVSDEDPEVKFNWYVDGVEVHNAKTKPREELYNSTYRVVSVLTVLHQDWLNGKEYKCKVSNKALPKPIEKTISKAKGQPREPQVYTLPPSREEMTKNQVSLTCLVKGFYPSDIAVEWESNGQPENNYKTTPPVLDSDGSFFLYSKLTVDKSRWQQGNVFSCSVMHEALHNHYTQKSLSLSP
light: DIVMTQSPATLSLSPGERATLSCTSSQSVYHANWLSWFQQKPGQPPKLLIYWASTLAYGVPSRFSGSGSGTDFTLTISSLQPEDAATYYCAGGYGGGRYAFGQGTKVEIKRTVAAPSVFIFPPSDEQLKSGTASVVCLLNNFYPREAKVQWKVDNALQSGNSQESVTEQDSKDSTYSLSSTLTLSKADYEKHKVYACEVTHQGLSSPVTKSFNRGEC
notes: Substitutions introduced into M103205H795-SG1, expressed with M103202L889-SK1 as light chain; EU numbering
For B1, the Kd in test [1] was 530 nM; in test [2], 4 µM; in test [3] it was 1400 nM; in test [4], 3200 nM; in test [5], 1400 nM; in test [6] it was 230 nM. The Kd in test [7] worked out at 2200 nM; in test [8] it was 1000 nM.

B2: M103205H795-MY531/M103202L889-SK1 (antibody, human IgG1, kappa)
heavy: B1 heavy with L297Q, K328T
light: B1 light
notes: as for B1
Turning to B2, the dissociation constant (Kd) was 410 nM in test [1]; 2.9 µM in test [2]; 1500 nM in test [3]; 2200 nM in test [4]; 920 nM in test [5]; 290 nM in test [6]. Also, the dissociation constant Kd in test [7] turned out to be 1000 nM; in test [8], 1100 nM.

B3: M103205H795-MY532/M103202L889-SK1 (antibody, human IgG1, kappa)
heavy: B1 heavy with S241V, L297Q
light: B1 light
notes: as for B1
For B3, the equilibrium dissociation constant (Kd) in test [1] is 190 nM; in test [2], 1.7 µM; in test [3], 830 nM; in test [4], 740 nM; in test [5], 600 nM; in test [6], 210 nM. Further, the Kd in test [7] was found to be 860 nM; in test [8], 770 nM.

B4: M103205H795-MY530/M103202L889-SK1 (antibody, human IgG1, kappa)
heavy: B1 heavy with W236L, L297Q, K328T
light: B1 light
notes: as for B1
Take B4: the Kd in test [1] is 270 nM; in test [2], 3.6 µM; in test [3] it was 1600 nM; in test [4], 2500 nM; in test [5], 1100 nM; in test [6], 170 nM. Besides, the Kd in test [7] came out at 850 nM; in test [8], 13 nM.
